In patent publication US8476054B2, “Thrombin-like enzyme of Agkistrodon acutus” (Konruns Pharmaceutical Co., Ltd., priority 2008, dated 2013):
“Also recorded” adds a separate entry of the source.

B1: hemocoagulase (protein)
chain 1: DCSSGWSSYEGHCYKVFKQSKTWADAESFCTKQVNGGHLVSLESSGEADFVGQLLAQKLKSAKLHVWLGLRAQNKEKQCSLQWSDGSSLSYENWLEEESKKCLGVHLETGFHKWENFYCEQQDPFVCEA
chain 2: DCPSDWSSYEGHCYKPFNEPKNWADAENFCTKQHTGGHLVSFQSTEEADFVVKLAFQTFDYGLFWFGLSKLWNQCNWQWSNAAMLKYTDWAEESYCVYFKSTNNKWRSLTCRMLANFVCEFQA

Experiments:
[1] = tested on: hemocoagulase of Agkistrodon acutus; test: effect of PMSF on the agglutination time of the hemocoagulase; type: biochemical
Description: (§1) 1% bovine fibrinogen (Sigma Company) solution was prepared with physiological saline.
(§2) The operational steps of the experiment were as follows:
(§3) (1) 2 ml 1% bovine fibrinogen solution was kept at constant temperature of 37° C. for 5 min;
(§4) (2) 3 tubes were respectively marked with 1 #, 2 #, 3 #, then 200 μl hemocoagulase solution (5 u/ml) diluted one time with distilled water was added into each of 3 tubes;
(§5) (3) 10 μl distilled water was added into tube 1#, 10 μl isopropanol was added into tube 2#, and 10 μl PMSF was added into tube 3#, and the tubes were kept at constant temperature of 37° C. in water bath for 5 min;
(§6) (4) Observations of the agglutination experiments were carried out separately in the order of the numbering of the above tubes. 200 μl 1% bovine fibrinogen solution at constant temperature was added into each of the tubes respectively, followed by counting time immediately and shaking the tube gently; then the tube was kept to stand in water bath of 37° C. The agglutination reaction was observed. When the solution was completely coagulated, time-counting was finished.

[2] = tested on: bovine fibrinogen; test: enzymatic activity assay (bovine fibrinogen assay or normal human plasma assay); type: biochemical; conditions: hemocoagulase of Example 2 further purified by HPLC
Description: The above dialyzed enzyme solution was loaded on a pre-equilibrated DEAE-Sepharose Fast Flow anion exchange chromatography column, and the column was eluted with 0.01M, pH7.4 PBS. Then, the stepwise elution was conducted with 0.01M, pH7.4 PBS containing 0.02M, 0.04M, 0.06M, 1.0M NaCl respectively, and the second eluting peak of 0.06M NaC1 eluent was collected to obtain 1,050 ml of eluent. […] The 1,050 ml eluent was ultra-filtrated to 135 ml by Millipore Pellicon 2 tangential flow ultra-filter (0.1M^2 cut off 5 k membrane). The 135 ml ultra-filtrated solution was poured into a dialysis bag and dialyzed against deionized water for 24 hours, and the deionized water was changed 3 times during the dialysis. After dialysis, the volume of the enzyme solution is 159 ml, and the determined content of the total protein in the solution is 240 mg, the determined specific activity of the enzyme is 195 u/mg protein and a final yield of 0.8%. […]
1 ml 1.0% bovine fibrinogen (Sigma company) prepared with physiological saline was added to a tube, kept at 37±0.5° C. in water bath for 3 min, followed by adding 1 ml 37±0.5° C. preheated enzymatic solution to be determined was added into the tube while counting time immediately; if white flocs appeared in the bovine fibrinogen solution by shaking it within 120±30 seconds, the activity unit of the enzymatic solution is determined to be 1 u/ml. […]

[3] = isoelectric focusing electrophoresis analysis; type: physicochemical
Description: The above dialyzed enzyme solution was loaded on a pre-equilibrated DEAE-Sepharose Fast Flow anion exchange chromatography column, and the column was eluted with 0.01M, pH7.4 PBS. Then, the stepwise elution was conducted with 0.01M, pH7.4 PBS containing 0.02M, 0.04M, 0.06M, 1.0M NaCl respectively, and the second eluting peak of 0.06M NaC1 eluent was collected to obtain 1,050 ml of eluent. […] The 1,050 ml eluent was ultra-filtrated to 135 ml by Millipore Pellicon 2 tangential flow ultra-filter (0.1M^2 cut off 5 k membrane). The 135 ml ultra-filtrated solution was poured into a dialysis bag and dialyzed against deionized water for 24 hours, and the deionized water was changed 3 times during the dialysis. After dialysis, the volume of the enzyme solution is 159 ml, and the determined content of the total protein in the solution is 240 mg, the determined specific activity of the enzyme is 195 u/mg protein and a final yield of 0.8%. The protein has a HPLC purity of 98.2%, and two protein bands were shown by reduced SDS-PAGE with the molecular weight of about 15 kDa and 14.5 kDa, respectively. The enzyme has an isoelectric point(pI) of 5.5 by isoelectric focusing electrophoresis analysis.

[4] = tested on: bovine fibrinogen; test: agglutination experiment, time to complete coagulation of bovine fibrinogen solution; type: biochemical; conditions: 200 μl hemocoagulase solution (5 u/ml), 200 μl 1% bovine fibrinogen, 37° C.
Description: as §1, §2, §3, §4, §5, §6

[5] = tested on: human fibrinogen; test: hydrolyzing human fibrinogen with the hemocoagulase, SDS-PAGE; type: biochemical; conditions: for band of alpha subunit of human fibrinogen: hemocoagulase 1 unit, 37° C.
Description: A 4 mg/ml human fibrinogen solution was prepared with 50 mM Tris-HCl buffer solution(pH 7.4). 0.5 ml human fibrinogen solution were respectively added into each of 5 tubes; 1 activity unit of the purified hemocoagulase was separately added into each of 4 tubes according to 4 different time intervals of heat preservation time for hydrolyzing, and the tubes were kept at 37° C. in water bath for 4 h, 2 h, 1 h and 0.5 h, respectively; after that, SDS-PAGE was carried out immediately to observe the hydrolyzing degree of the human fibrinogen. Meanwhile, another tube containing 0.5 ml of the human fibrinogen solution was kept at 37° C. in water bath for 4 h as a control.

| Molecule | Agglutination time ([1]; 10 μl PMSF (4 mg/ml in isopropanol), 200 μl hemocoagulase solution (5 u/ml), 200 μl 1% bovine fibrinogen, 37° C.) [s] | inhibition of the activity of the hemocoagulase ([1]; 100 ppm PMSF) | enzyme activity of the solution [2] [u/ml] | isoelectric point (pI) [3] | Agglutination time ([4]; 10 μl distilled water) [s] | Agglutination time ([4]; 10 μl isopropanol) [s] | hydrolysis of the alpha chain (alpha subunit) of human fibrinogen [5] | band of alpha subunit of human fibrinogen ([5]; treated for 0.5 h and 1 h) | band of alpha subunit of human fibrinogen ([5]; treated for 2 h and 4 h) |
| --- | --- | --- | --- | --- | --- | --- | --- | --- | --- |
| O=S(=O)(F)Cc1ccccc1 [PMSF, Phenylmethanesulfonyl fluoride] | > 600 | completely inhibits | – | – | – | – | – | – | – |
| B1 | – | – | 10 | 5.5 | 50 | 50 | able to hydrolyze the alpha chain of human fibrinogen; also recorded: has the function of hydrolyzing the alpha subunit of the human fibrinogen | became gradually light | disappeared completely |
